Experimental findings from paper PMC2887959 are described below.

Common to all, as to experiment: fluorescence anisotropy
(In fluorescence polarisation assays a small probe gives low polarisation when free and higher when bound to something large.)

Data set [1] concerns the target T1, IN deltaC (IN1-213) (HIV-1, UniProt P04585 1148-1360).
In data set [2] the target is T1, IN deltaC (IN1-213). The source holds these as a separate data set.
Data set [3] has as its target T2, IN catalytic core CC (IN50-213) (HIV-1, UniProt P04585 1197-1360).
The target of data set [4] is T2, IN catalytic core CC (IN50-213). This is another data set of the same source.

Like-named read-outs stand apart in the source and are kept apart here.

B1: U5A/U5B (dsDNA)
DNA 1: GTGTGGAAAATCTCTAGCAGT
DNA 2: ACTGCTAGAGATTTTCCACAC
The term Kd denotes the free concentration of one partner at which half of the binding sites on the other are occupied at equilibrium, for simple one-to-one binding. A high value points to a looser complex. On to B1, for which the Kd amounted to 60 ± 4 nM in data set [1], 64 ± 8 nM in data set [2], 61 ± 10 nM in data set [3] and 53 ± 13 nM in data set [4].
